± gives the uncertainty stated by the source.

The nature of this data set: self-splicing fitness, log relative to wild type (ln ratio); higher = more splicing; Tetrahymena group I intron in knt gene, E. coli kanamycin selection, DiMSum; sequences stand for … in CUCUCU…GGAGGGAAAAGUUAUCAGGCAUGCACCUGGUAGCUAGUCUUUAAACCAAUAGAUUGCAUCGGUUUAAAAGGCAAGACCGUCAAAUUGCGGGAAAGGGGUCAACAGCCGUUCAGUACCAAGUCUCAGGGGAAACUUUGAGAUGGCCUUGCAAAGGGUAUGGUAAUAAGCUGACGGACAUGGUCCUAACCACGCAGCCAAGUCCUAAGUCAACAGAUCUUCUGUUGAUAUGGAUGCAGUUCACAGACUAAAUGUCGGUCGGGGAAGAUGUAUUCUUCUCAUAAGAUAUAGUCGGACCUCUCCUUAAUGGGAGCUAGCGGAUGAAGUGAUGCAACACUGGAGCCGCUGGGAACUAAUUUGUAUGCGAAAGUAUAUUGAUUAGUUUUGGAGUACUCGUGGUCG
The essentials:
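Library with all eight P1ex-region intron nucleotides randomised, intron inside the knt kanamycin-resistance gene on pET-22b(+), in E. coli BL21(DE3). Cells grew overnight at 37°C or 30°C on LB agar with or without 25 μg/mL kanamycin (plus 100 μg/mL carbenicillin, 50 μM IPTG, 0.2% rhamnose), in six replicate transformations. Pooled colonies were amplicon-sequenced on Illumina HiSeq 2500. DiMSum fitness is the error-weighted combination of wild-type-normalised replicate fold changes, kanamycin versus none.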

With CUUGAGCAAUAUUACGCGGC, the “self-splicing fitness (ln)” value by setting is: (30 °C) -2.63 ± 0.27; (37 °C) -1.43 ± 0.43. On to UGACAGCAAUAUUACGUUCG, for which the “self-splicing fitness (ln)” value (30 °C) was -0.885 ± 0.068 and the “self-splicing fitness (ln)” value (37 °C) was -0.194 ± 0.075.

As to UCCGAGCAAUAUUACGCCGC, the “self-splicing fitness (ln)” value (37 °C) is -2.15 ± 0.49. On to AAUGAGCAAUAUUACGAUCA, for which the “self-splicing fitness (ln)” value (37 °C) was -2.46 ± 0.31. For the sequence AAACAGCAAUAUUACGACUA, the “self-splicing fitness (ln)” value is, setting by setting: (30 °C) -0.953 ± 0.074; (37 °C) 0.0444 ± 0.077. For CUUGAGCAAUAUUACGAUAC, the “self-splicing fitness (ln)” value (30 °C) is -3.57 ± 0.42. With AGUAAGCAAUAUUACGAUGC, the “self-splicing fitness (ln)” value by setting is: (30 °C) -2.58 ± 0.19; (37 °C) -1.67 ± 0.15. Take GAUCAGCAAUAUUACGGUCC: the “self-splicing fitness (ln)” value (30 °C) was -3.7 ± 0.33. As to CAAAAGCAAUAUUACGUAUC, the “self-splicing fitness (ln)” value (30 °C) is -4.08 ± 0.21 and the “self-splicing fitness (ln)” value (37 °C) was -1.02 ± 0.15.

For UCACAGCAAUAUUACGCUGU, the “self-splicing fitness (ln)” value (30 °C) was -2.88 ± 0.16 and the “self-splicing fitness (ln)” value (37 °C) is -2.19 ± 0.24. Taken in the same sequence, the figures for GUGCAGCAAUAUUACGUUCG were -1.52 ± 0.09 and -0.675 ± 0.14. AAUCAGCAAUAUUACGCAAA: the “self-splicing fitness (ln)” value (30 °C) is -0.0279 ± 0.067 and the “self-splicing fitness (ln)” value (37 °C) is -0.117 ± 0.078. Taken in the same sequence, the figures for AAUAAGCAAUAUUACGCCUA were 0.0474 ± 0.09 and -0.183 ± 0.098. Regarding CACGAGCAAUAUUACGAAGC, the “self-splicing fitness (ln)” value (37 °C) is -1.41 ± 0.26. Consider GCGAAGCAAUAUUACGAACG, for which the “self-splicing fitness (ln)” value reads like this: (30 °C) -1.63 ± 0.16; (37 °C) -0.889 ± 0.21.

For the sequence GCUGAGCAAUAUUACGAUUU, the “self-splicing fitness (ln)” value runs as follows: (30 °C) -1.04 ± 0.08; (37 °C) -0.288 ± 0.096.

Consider ACUCAGCAAUAUUACGUGGG, for which the “self-splicing fitness (ln)” value was -3.7 ± 0.18 (30 °C) and -2.9 ± 0.2 (37 °C).

For UCUAAGCAAUAUUACGCAAC, the “self-splicing fitness (ln)” value runs as follows: (30 °C) -3.54 ± 0.17; (37 °C) -1.32 ± 0.2. With UAGUAGCAAUAUUACGGGAA, the “self-splicing fitness (ln)” value is, setting by setting: (30 °C) -2.79 ± 0.32; (37 °C) -1.65 ± 0.29. For UCGCAGCAAUAUUACGAACG the same measures were -2.63 ± 0.39 and -1.05 ± 0.3. Taken in the same sequence, the figures for UCCCAGCAAUAUUACGUGUA were 0.0644 ± 0.061 and -0.0313 ± 0.073. Regarding CCCGAGCAAUAUUACGAUUU, the “self-splicing fitness (ln)” value was -3.84 ± 0.23 (30 °C) and -2.15 ± 0.2 (37 °C). Taken in the same sequence, the figures for UGUAAGCAAUAUUACGCGAC were -2.37 ± 0.27 and -2.4 ± 0.36. Taken in the same sequence, the figures for GCCAAGCAAUAUUACGCGCU were -1.33 ± 0.063 and -0.352 ± 0.082. Consider AUUUAGCAAUAUUACGCCGA, for which the “self-splicing fitness (ln)” value was -1.94 ± 0.28 (30 °C) and -1.09 ± 0.23 (37 °C). For UCCGAGCAAUAUUACGGCGC, the “self-splicing fitness (ln)” value (37 °C) was -3.02 ± 0.37. Turning to GAAAAGCAAUAUUACGGCGG, the “self-splicing fitness (ln)” value is -1.86 ± 0.1 (30 °C) and -1.59 ± 0.1 (37 °C).

Consider UCGCAGCAAUAUUACGCCUG, for which the “self-splicing fitness (ln)” value runs as follows: (30 °C) -3.14 ± 0.23; (37 °C) -1.28 ± 0.2. In the case of UUAAAGCAAUAUUACGAUUC, the “self-splicing fitness (ln)” value was -1.07 ± 0.1 (30 °C) and -0.514 ± 0.11 (37 °C). Turning to GGUAAGCAAUAUUACGGCUU, the “self-splicing fitness (ln)” value reads like this: (30 °C) -0.104 ± 0.075; (37 °C) 0.352 ± 0.11.

AGUUAGCAAUAUUACGUUAG: the “self-splicing fitness (ln)” value is -3.45 ± 0.23 (30 °C) and -2.72 ± 0.3 (37 °C). For CCGUAGCAAUAUUACGGUGA the same measures were -3.66 ± 0.26 and -2.45 ± 0.25. Taken in the same sequence, the figures for ACGUAGCAAUAUUACGGCCC were -0.341 ± 0.15 and 0.0459 ± 0.25. Take CCUUAGCAAUAUUACGAUGC: the “self-splicing fitness (ln)” value was -4.15 ± 0.27 (30 °C) and -2.62 ± 0.17 (37 °C). Turning to CAGAAGCAAUAUUACGUCCA, the “self-splicing fitness (ln)” value was -1.68 ± 0.14 (30 °C) and -1.44 ± 0.21 (37 °C). With CCCGAGCAAUAUUACGCUUG, the “self-splicing fitness (ln)” value (37 °C) is -2.06 ± 0.33. Regarding AACGAGCAAUAUUACGCCGA, the “self-splicing fitness (ln)” value runs as follows: (30 °C) -2.83 ± 0.25; (37 °C) -2.42 ± 0.17. For UCCCAGCAAUAUUACGAAGG the same measures were -3.68 ± 0.23 and -1.63 ± 0.23. Taken in the same sequence, the figures for UAUGAGCAAUAUUACGGUCA were -2.22 ± 0.25 and -1.65 ± 0.25. Taken in the same sequence, the figures for GCGCAGCAAUAUUACGGGAA were -1.92 ± 0.086 and -0.883 ± 0.066. Consider GAGUAGCAAUAUUACGGUUA, for which the “self-splicing fitness (ln)” value (30 °C) is -0.885 ± 0.14 and the “self-splicing fitness (ln)” value (37 °C) was -0.497 ± 0.099.

Regarding UCGUAGCAAUAUUACGAAAG, the “self-splicing fitness (ln)” value is -3.1 ± 0.17 (30 °C) and -2.16 ± 0.23 (37 °C). On to CUGGAGCAAUAUUACGUUGC, for which, under “30 °C”, the “self-splicing fitness (ln)” value is -3.09 ± 0.33. Regarding GUAAAGCAAUAUUACGGUCC, the “self-splicing fitness (ln)” value runs as follows: (30 °C) -1.23 ± 0.21; (37 °C) -0.634 ± 0.25. Taken in the same sequence, the figures for UGAGAGCAAUAUUACGCGGA were -3.34 ± 0.47 and -1.49 ± 0.46. Regarding ACUUAGCAAUAUUACGUAAU, the “self-splicing fitness (ln)” value reads like this: (30 °C) -2.39 ± 0.1; (37 °C) -1.54 ± 0.12. Regarding UGUAAGCAAUAUUACGAUAU, the “self-splicing fitness (ln)” value by setting is: (30 °C) -3.01 ± 0.3; (37 °C) -0.86 ± 0.24. Taken in the same sequence, the figures for AUUAAGCAAUAUUACGCACU were -0.21 ± 0.13 and -0.414 ± 0.13. Taken in the same sequence, the figures for GAUUAGCAAUAUUACGUACC were -1.71 ± 0.22 and 0.563 ± 0.21.

Turning to CCUUAGCAAUAUUACGACCA, under “30 °C”, the “self-splicing fitness (ln)” value was -2.66 ± 0.36. As to GCGAAGCAAUAUUACGAGAA, the “self-splicing fitness (ln)” value (30 °C) was -2.63 ± 0.46 and the “self-splicing fitness (ln)” value (37 °C) was -1.38 ± 0.26. For the sequence CCGUAGCAAUAUUACGUCUG, the “self-splicing fitness (ln)” value (30 °C) is -0.102 ± 0.054 and the “self-splicing fitness (ln)” value (37 °C) was 0.303 ± 0.067. Taken in the same sequence, the figures for UCUGAGCAAUAUUACGCAAG were -3.36 ± 0.18 and -2.16 ± 0.19. Take ACAAAGCAAUAUUACGCCGG: the “self-splicing fitness (ln)” value (30 °C) was -0.52 ± 0.065 and the “self-splicing fitness (ln)” value (37 °C) was -0.282 ± 0.083.

On to UCAAAGCAAUAUUACGGCAG, for which the “self-splicing fitness (ln)” value is -1.24 ± 0.12 (30 °C) and 0.177 ± 0.16 (37 °C). In the case of AUCUAGCAAUAUUACGACAU, the “self-splicing fitness (ln)” value was determined as 0.0957 ± 0.013 (30 °C) and 0.273 ± 0.032 (37 °C). On to UGCGAGCAAUAUUACGUUAU, for which, under “37 °C”, the “self-splicing fitness (ln)” value is -3.11 ± 0.4. As for CCGCAGCAAUAUUACGACCG, the “self-splicing fitness (ln)” value reads like this: (30 °C) -0.576 ± 0.074; (37 °C) 0.229 ± 0.11. GUUGAGCAAUAUUACGCUCC: the “self-splicing fitness (ln)” value (30 °C) is -1.81 ± 0.48. Regarding GGACAGCAAUAUUACGCAUU, the “self-splicing fitness (ln)” value is -0.834 ± 0.062 (30 °C) and -0.622 ± 0.078 (37 °C). For GAUCAGCAAUAUUACGCCUC the same measures were -1.36 ± 0.18 and -0.876 ± 0.23.

For the sequence AGCAAGCAAUAUUACGGCAG, the “self-splicing fitness (ln)” value is -0.65 ± 0.065 (30 °C) and -0.357 ± 0.082 (37 °C).

Turning to GUUCAGCAAUAUUACGUUUA, the “self-splicing fitness (ln)” value runs as follows: (30 °C) -1.21 ± 0.11; (37 °C) -0.233 ± 0.09. Taken in the same sequence, the figures for UCAUAGCAAUAUUACGGAUU were -3.52 ± 0.12 and -3.06 ± 0.16. On to UCUAAGCAAUAUUACGAACA, for which the “self-splicing fitness (ln)” value runs as follows: (30 °C) -1.21 ± 0.28; (37 °C) -1.2 ± 0.2. In the case of GGCGAGCAAUAUUACGAAAG, the “self-splicing fitness (ln)” value is -3.27 ± 0.3 (30 °C) and -2.77 ± 0.24 (37 °C). Taken in the same sequence, the figures for UAUCAGCAAUAUUACGACAU were -0.823 ± 0.012 and -0.0787 ± 0.032.

For the sequence ACAGAGCAAUAUUACGUUAA, the “self-splicing fitness (ln)” value by setting is: (30 °C) -3.15 ± 0.15; (37 °C) -2.21 ± 0.21. Taken in the same sequence, the figures for AGUCAGCAAUAUUACGUCCG were -2.14 ± 0.12 and -1.29 ± 0.18. Taken in the same sequence, the figures for CGCGAGCAAUAUUACGUUGG were -3.22 ± 0.17 and -2 ± 0.2. GGACAGCAAUAUUACGAUCA: the “self-splicing fitness (ln)” value reads like this: (30 °C) -0.381 ± 0.087; (37 °C) 0.0425 ± 0.11.

For the sequence CUUAAGCAAUAUUACGUUCG, the “self-splicing fitness (ln)” value is, setting by setting: (30 °C) -1.05 ± 0.075; (37 °C) -0.0528 ± 0.099. For CGCUAGCAAUAUUACGCGGU the same measures were -3.4 ± 0.26 and -2.39 ± 0.21.

For AUGGAGCAAUAUUACGGUUG, the “self-splicing fitness (ln)” value runs as follows: (30 °C) -4.12 ± 0.3; (37 °C) -2.21 ± 0.23. For ACAAAGCAAUAUUACGCAGG the same measures were -1.47 ± 0.064 and -1.21 ± 0.08. For AGAUAGCAAUAUUACGAAUU the same measures were -2.43 ± 0.15 and -1.25 ± 0.16. For AAAGAGCAAUAUUACGUGUU the same measures were -4.56 ± 0.36 and -2.66 ± 0.24.

UAGGAGCAAUAUUACGUGGU: the “self-splicing fitness (ln)” value is -3.87 ± 0.29 (30 °C) and -2.26 ± 0.24 (37 °C).

Values taken from the supplement of paper PMC7877785.
